Laboratory results from US20260209319A1 (JECHO LABORATORIES, published 2026).
Residue numbers refer to the chain shown, from its start. Names may count otherwise.

B1: m912-[L]-scFv^CD3 bsAb (bispecific antibody, V domains shown)
VH: QVQLQESGPGLVKPSETLSLTCTVSGGSVSSGSYYWSWIRQPPGKGLEWIGYIYYSGSTNYNPSLKSRVTISVDTSKNQFSLKLSSVTAADTAVYYCAREGKNGAFDIWGQGTMVTVSS
VL: not shown
B2: HP4-44-[L]-scFv^CD3 bsAb (bispecific antibody, V domains shown)
VH: B1 VH with G101D, K102V, N103L, G104S, A105G
VL: DIQMTQSPSSLSASVGDRVTITCRASQSISSYLNWYQQKPGKAPKLLIYAASSLQSGVPSRFSGSGSGTDFTLTISSLQPEDFATYYCQQSYDAFYTFGGGTKVEIK
B3: MSLN-30-[L]-scFv^CD3 bsAb (bispecific antibody, V domains shown)
VH: B1 VH with G32R, S33D, Y34D, Y35L, E100D, G101F, K102V, N103L, G104S, A105G
VL: B2 VL with S91P, F95S
B4: MSLN-39-[L]-scFv^CD3 bsAb (bispecific antibody, V domains shown)
VH: B1 VH with G32F, S33T, Y34D, Y35T, G101D, K102A, N103L, G104T, A105G
VL: B2 VL with I29S, S30R, S31Y, L33V, F95S
B5: MSLN-39 IgG (antibody, V domains shown)
VH: B1 VH with G32F, S33T, Y34D, Y35T, G101D, K102A, N103L, G104T, A105G
VL: B2 VL with I29S, S30R, S31Y, L33V, F95S
notes: IgG; also called MSLN-39 antibody; MSLN-39 in IgG format
B6: MSLN-31-[L]-scFv^CD3 bsAb (bispecific antibody, V domains shown)
VH: B1 VH with G32F, S33T, Y34D, Y35T, E100D, G101F, K102V, N103L, G104S, A105G
VL: B2 VL with S91P, F95S
notes: IgG-[L]-scFv format; also called MSLN-31 bsAb; not shown: IgG heavy constant region (N297G, K322A), light constant region and the huOKT3-scFv with its 3xG4S linker; copies: 2 + 2

How the values were obtained:
[1] = biological target: T1, mesothelin on the cell surface (OVCAR3, Capan-2 cells) (UniProt Q13421 296-598); test: cell-based or functional assay
[2] = biological target: T2, CD3 on Jurkat cells (UniProt P07766 23-207); test: flow cytometry on Jurkat cells
T2 construct: whole, on cells; Part of the TCR/CD3 complex on cells

[3] = biological target: T1, mesothelin on the cell surface (OVCAR3, …); test: flow cytometry on OVCAR3 cells
[4] = biological target: T3, mesothelin (soluble, recombinant) (UniProt Q13421 296-580, limits assumed); test: method not stated; quoted in the T cell activation example
T3 construct: also called MSLN; soluble MSLN

[5] = biological target: T3, mesothelin (soluble, recombinant); test: cell-based or functional assay
[6] = biological target: T3, mesothelin (soluble, recombinant); test: Octet BLI, bsAb captured on AHC biosensors, mesothelin 0-200 nM, 1:1 model
Description: The Fe-epitope anti-human capture (AHC) biosensors from ForteBio were used for loading the testing bsAbs. […] A probe loaded with a control antibody was used as a reference sensor. […] The dissociation constants (KD) and Kₒₙ/Koff are estimated by fitting to the 1:1 binding model. The probes were regenerated for multiple rounds of measurements.

[7] = biological target: T3, mesothelin (soluble, recombinant); test: SPR, Biacore 3000, antibody captured via an Fc antibody, mesothelin 0.625-10 nM
[8] = biological target: T3, mesothelin (soluble, recombinant); test: SPR (Biacore 3000), antibody captured on the chip via an Fc antibody, mesothelin 0.625-10 nM [text above the curves]
Protocol: The measurement was performed by immobilizing the tested antibody and then perfusing with corresponding concentrations of mesothelin.

[9] = biological target: mesothelin on the cell surface (OVCAR3, Capan-2 cells) (UniProt Q13421 296-598); test: cell-based or functional assay; remark: listed apart in the source

Binder | EC50, T cell activation assay (Jurkat NFAT-luciferase reporter) in the presence of Capan-2 cells [1] [µg/mL] | EC50, T cell activation assay (Jurkat NFAT-luciferase reporter) in the presence of OVCAR3 cells [1] [µg/mL] | EC50 [2] [µg/mL] | EC50 [3] [µg/mL] | Kd [4] [nM] | fold increase of the IC50 in the luciferase-based cytotoxicity assay on NCI-N87 cells at 200 ng/mL of soluble MSLN [5] [fold] | Kd [6] [nM] | koff [6] [s⁻¹] | kon [6] [M⁻¹ s⁻¹] | Kd [7] [nM] | koff [8] [s⁻¹] | kon [8] [M⁻¹ s⁻¹] | EC50, T cell activation assay (Jurkat NFAT-luciferase reporter) in the presence of Capan-2 cells [9] [µg/mL] | EC50, T cell activation assay (Jurkat NFAT-luciferase reporter) in the presence of OVCAR3 cells [9] [µg/mL]
B1 | 6.92 | 6.64 | 0.403 | 0.572 | 72 |  |  |  |  |  |  |  |  | 
B2 | 0.0105 | 0.0087 | 0.636 | 0.0096 |  | 2.5 | 2.91 | 0.000809 | 278000 |  |  |  |  | 
B3 | 0.0117 | 0.0098 | 0.521 | 0.0121 |  |  | 0.00171 | 2.44e-07 | 221000 |  |  |  |  | 
B4 | 0.0128 | 0.0082 | 0.893 | 0.0124 |  | 27 | 0.00107 | 4.05e-07 | 379000 |  |  |  |  | 
B5 |  |  |  |  |  |  |  |  |  | 0.0564 | 8.93e-05 | 1.58e+06 |  | 
B6 |  |  |  |  |  |  | 0.00118 | 3.03e-07 | 258000 |  |  |  | 0.0156 | 0.0116
